Columns and labels:
HER-3 (human, on cells) = target: T1, HER-3 (human, on cells) (human, UniProt P21860 20-1342); assay: indirect FACS Scatchard analysis on cells
T1 construct: whole, on cells; also called ErbB3; HER-3+ cell lines
Description: Therefore, 10⁵ cells of interest or SK-Br 3 cells were harvested with 10 mM EDTA in PBS, washed once with FACS buffer (PBS, 3% FCS, 0.4% azide) and seeded on a 96-well round bottom plate. The cells were spun for 3 min at 1000 rpm to remove supernatant and then resuspended with α-HER-3 antibody (3 μg/ml) or with antibody dilutions (100 μl/well) starting with 20 μg/ml human monoclonal antibody in FACS buffer, diluted in 1:2 dilution steps. Cell suspensions were incubated on ice for 1 hr, washed twice with FACS buffer and resuspended with secondary antibody (100 μl/well) donkey-anti-human-PE (Jackson) diluted 1:50 in FACS buffer. The cell suspensions were incubated on ice and in the dark for 30 min, washed twice with FACS buffer and analyzed (FACS, Beckman Coulter). According to the FACS Scatchard analysis, the fluorescence mean was calculated for each measurement. Background staining (=without 1st antibody) was subtracted from each fluorescence mean. Scatchard plot with x-value=fluorescence mean and y-value=fluorescence mean/concentration of mAb (nM) was generated.

[1] = target: T2, rat HER-3 ECD (V5-His fusion protein) (rat, UniProt Q62799 20-643); assay: ELISA, column Rat XR (XR = cross-reactive)
T2 construct: extracellular domain; not shown: V5-His tag

[2] = target: T3, reduced, denatured HER-3-His tagged purified ECD protein (human, UniProt P21860 20-643); assay: dot blot of reduced, denatured HER-3-His ECD
T3 construct: extracellular domain; Same protein as m2, but reduced and denatured (disulfide bonds broken); not shown: His tag

T2 sequence (Q62799 20-643): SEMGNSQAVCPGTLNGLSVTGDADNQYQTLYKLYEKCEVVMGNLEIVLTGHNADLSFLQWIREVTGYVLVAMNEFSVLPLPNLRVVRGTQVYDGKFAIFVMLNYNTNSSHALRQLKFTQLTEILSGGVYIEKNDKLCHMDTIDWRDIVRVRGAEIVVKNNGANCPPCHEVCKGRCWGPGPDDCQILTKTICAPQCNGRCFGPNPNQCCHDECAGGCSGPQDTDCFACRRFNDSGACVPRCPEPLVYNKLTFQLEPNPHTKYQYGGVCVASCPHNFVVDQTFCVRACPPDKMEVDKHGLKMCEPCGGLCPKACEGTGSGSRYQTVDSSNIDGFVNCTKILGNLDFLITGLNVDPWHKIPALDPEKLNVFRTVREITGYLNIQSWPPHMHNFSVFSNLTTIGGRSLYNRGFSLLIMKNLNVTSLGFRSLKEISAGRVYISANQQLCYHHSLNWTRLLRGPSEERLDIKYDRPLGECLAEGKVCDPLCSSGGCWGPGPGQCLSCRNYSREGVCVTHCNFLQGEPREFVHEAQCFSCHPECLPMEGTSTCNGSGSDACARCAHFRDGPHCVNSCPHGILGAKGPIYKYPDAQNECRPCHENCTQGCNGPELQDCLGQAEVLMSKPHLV

| Binder | Kd (HER-3 (human, on cells)) [nM] | binding result [1] | binding result [2] |
| --- | --- | --- | --- |
| U1-43 (antibody, V domains shown) VH: QVQLQESGPGLVKPSQTLSLTCTVSGGSISSGGYYWSWIRQHPGKGLEWIGYIYYSGSTYYNPSLRSRVTISVDTSKNQFSLKLSSVTAADTAVYYCARDREREWDDYGDPQGMDVWGQGTTVTVS VL: DIQMTQSPSSLSASVGDRVTITCRASQSISSYLHWYQQKPGKAPKLLIHAASSLQSGVPSRFSGSGSGTDFTLTISSLQPEDFATYYCQQSYSNPLTFGGGTKVEIQ | 0.57 |  |  |
| U1-61 (antibody, V domains shown) VH: QVQLQESGPGLVKPSQTLSLTCTVSGVSISSGGYYWSWIRQHPGMGLEWIGYIYYSGSTYYNPSLKSRVTISEDTSKNQFSLKLSSVTAADTAVYYCARDSESEYSSSSNYGMDVWGQGTTVTVS VL: DIQMTQSPSSLSASVGDRITITCRASQTISSYLNWYQQKPGKAPKLLIYAASSLQGGVPSRFSGSVSGTDFTLTVSSLQPEDFATYYCQQSYSNPLTFGGGTKVEIK | 0.13 |  |  |
| U1-44 (antibody, V domains shown) VH: EVQLVQSGAEVKKPGESLKISCKGSGYSFTSYWIGWVRQMPGKGLEWMGIIWPGDSDTIYSPSFQGQVTISADKSISTAYLQWSSLKASDTAMYYCARHENYGDYNYWGQGTLVTVSS VL: DIQMTQSPSSLSASVGDRVTITCRASQSIRSYLNWYQQKPGNAPKLLIYAASSLQSGVPSRFSGSGSGTDFTLTISSLQPEDFALYYCQQSISSPLTFGGGTKVEIK | 4 |  |  |
| U1-53 (antibody, V domains shown, also called mAb U1-53) VH: EVQLVESGGGLVQPGGSLRLSCAASGFTFSIYSMNWVRQAPGKGLEWVSYISSSSSTIYYADSVKGRFTISRDNAKNSLYLQMNSLRDEDTAVYYCARDRGDFDAFDIWGQGTMVTVSS VL: DIQMTQSPSSLSASVGDRVTITCQASQDITNYLNWYQQKPGKAPKLLIYDASNLETGVPSRFSGSGSGTDFTFTISSLQPEDIATYNCQQCENFPITFGQGTRLEIK | 0.082 | no binding | no binding |
| U1-59 (antibody, human IgG1, V domains shown, human IgG1 (gamma 1 constant) with human kappa constant region; also called mAb U1-59; IgG1 mAb consisting of the VH4-34 and the B3 kappa chain) VH: QVQLQQWGAGLLKPSETLSLTCAVYGGSFSGYYWSWIRQPPGKGLEWIGEINHSGSTNYNPSLKSRVTISVETSKNQFSLKLSSVTAADTAVYYCARDKWTWYFDLWGRGTLVTVSS VL: not shown | 3.69 | binds |  |
| U1-49 (antibody, human IgG1, V domains shown, also called human IgG1 HER-3 mAb, U1-49) VH: not shown VL: DILMTQTPLSLSVTPGQPASISCKSSQSLLLSDGGTYLYWYLQKPGQPPQLLIYEVSNRFSGVPDRFSGSGSGTDFTLKISRVEAEDVGVYYCMQSMQLPITFGQGTRLEIK | 1 | no binding | no binding |
| U1-62 (antibody) chain 1: EVQLVQSGAEVKKPGESLKISCKGSGYSFTSYWIGWVRQMPGKGLEWMGIIYPGDSDTRYSPSFQGQVTMSADKSISTAYLQLSSHEGLGHRHVLLCETDGWKLRTSRVIETSWGQGTTVTVS chain 2: not shown | 20.4 |  |  |
| U1-47 (antibody, V domains shown) VH: QVQLQQSGPGLVKPSQTLSLTCAISGDSVSSNSAAWNWIRQSPSRGLEWLGRTYYRSKWYNDYAVSVKSRITINPDTSKNQFSLQLNSVTPEDTAVYYCARDYYGSGSFYYYYGMDVWGQGTTVTVS VL: not shown | 9.38 |  |  |
| U1-24 (antibody, V domains shown) VH: QVQLQESGPGLVKPSQTLSLTCTVSGGSISSGDYYWSWIRQHPGKGLEWIGYIYYSGSTYYNPSLKSRVTISVDTSKNQFSLKLSSVTAADTAVYYCARADYDFWNGYFDYWGQGTLVTVSS VL: DIQMTQSPSSLSASVGDRVTITCRASQGIRNDLGWYQQKPGKAPKRLIYAASSLQSGVPSRFSGSGSGTEFTLTISSLQPEDFATYYCLQHNNYPWTFGQGTKVEIK | 0.06 |  |  |
| U1-7 (antibody, V domains shown) VH: QVQLQESGPGLVKPSQTLSLTCTVSGGSISSGDYYWSWIRQHPGKGLEWIGYIYYSGSTYYNPSLKSRVTISVDTSKNQFSLKLSSVTAADTAVYYCARADYDFWSGYFDYWGQGTLVTVSS VL: DFQMTQSPSSLSASVGDRVTITCRASQDIRNDLGWYRQKPGKAPKRLIYAASSLQSGVPSRFSGSGSGTEFTLTISSLQPEDFATYYCLQHNSYPWTFGQGTKVEIK | 0.02 |  |  |
| U1-51 (antibody, V domains shown) VH: QVQLQESGPGLVKPSETLSLTCTVSGGSISSYYWSWIRQPPGKGLEWIGYIYYSGSTNYNPSLKSRVTISVDTSKHQFSLKLSSVTAADTAVYYCARDSSYYDSSGYYLYYYAMDVWGQGTTVTVS VL: not shown | 132 |  |  |
| U1-58 (antibody, V domains shown) VH: QVQLVESGGGVVQPGRSLRLSCAASGFTFSSYGMHWVRQAPGKGLEWVAVIWYDGSNKYYADSVKGRFTISRDNSKNTLYLQMNSLRAEDTAVYYCARAARLDYYYGMDVWGQGTTVTVSS VL: DIQMTQSPSSLSASVGDRVSITCRASQSINSYLNWFQQKPGKAPQLLIFGASGLQSGVPSRFSGSGSGTDFTLTINSLQPEDFATYYCQQSYSSPLTFGQGTRLEIK | 6.4 |  |  |
| U1-55.1 (antibody, V domains shown) VH: QVQLQESGPGLVKPSETLSLTCTVSGGSVSSGGYYWNWIRQPPGKGLEWIGYINYSGSTNYNPSLKSRVTISVDTSKNQFSLKLSSVTAADTAVYYCARDRELELYYYYYGMDVWGQGTTVTVS VL: not shown | 3.7 |  |  |
| U1-39 (antibody, V domains shown) VH: EVQLVESGGGLIQPGGSLRLSCAASGFTVSSNYMSWVRQAPGKGLDWVSVIYSGGSTYYADSVKGRFTISRDNSKNTLYLQMNSLRAEDTAVYYCARGQWLDVWGQGTTVTVSS VL: DIVMTQSPLSLPVTPGEPASISCRSSQSLLHSNGYNYLDWYLQRPGQSPQLLFYLGFHRASGVPDRFSGSGSGTDFTLKISRVEAEDVGVYYCRQALQTPLTFGGGTKVEIK | 102 |  |  |
| U1-41 (antibody, V domains shown) VH: QVQLQESGPGLVKPSQTLSLTCTVSGGSISSGGYYWSWIRQHPGKGLEWIGYIYYSGSTYYNPSLKSRVTISVDTSKNQFSLKLSSVTAADTAVYFCARDRELEGYSNYYGVDVWGQGTTVTVS VL: DIQMTQSPSSLSASVGDRVTITCRASQAISNYLNWYQQKPGKAPKLLIYAASSLQSGVPSRFSGSGSGTDFTLTISSLQPEDFATYYCQQNNSLPITFGQGTRLEIK | 0.18 |  |  |
